From patent US10745461B2, “Pulsed introduction of low-dose RANKL as a therapy for diet-induced atherosclerosis” (Saint Louis University, priority 2015, dated 2020)

Tested on: IL-17A and TNFα
Experiment: WD-fed ovariectomized WT mice: TcREG and IL-17A/TNFα production by peripheral blood T-cells
Type: in vivo
Details: for peripheral blood T-cells that express TNFα and/or IL-17A (flow cytometry) / IL-17A and TNFα produced by freshly isolated peripheral blood cells (ELISA): WD-fed OVX WT mice
Text: It has been previously shown that low-dose RANKL (IdRANKL) induces TcREG in bone marrow. We postulated that induction of TcREG might be atheroprotective as it protects against osteoporosis in ovariectomized mice. To test that proposal, we first tested the ability of IdRANKL to modulate the systemic availability of proinflammatory cytokines. Thus, a new group of WT mice were fed WD, and subjected to sham or OVX surgeries, then dosed with saline or IdRANKL (two i.p. injections 3 and 7 weeks after OVX). […] We then, measured the ability of freshly isolated T-cells from peripheral blood to produce IL-17A and TNFα. […] Zoledronate is a bisphosphonate that is used clinically to prevent bone resorption (by suppressing osteoclasts). […] Without being limited to any particular theory of operation, we hypothesize that these cells contribute to postmenopausal comorbidities such as atherosclerosis and osteoporosis, and that immunosuppressing therapies such as pulsed IdRANKL will have cardio- and osteo-protective effects.

B1: receptor activator of NF-κB ligand (protein, UniProt O35235 139-316, looked up)
Tumor necrosis factor ligand …: FSGAPAMMEGSWLDVAQRGKPEAQPFAHLTINAASIPSGSHKVTLSSWYHDRGWAKISNMTLSNGKLRVNQDGFYYLYANICFRHHETSGSVPTDYLQLMVYVVKTSIKIPSSHNLMKGGSTKNWSGNSEFHFYSINVGGFFKLRAGEEISIQVSNPSLLDPDQDATYFGAFKVQDID
modifications: GST tag
peripheral blood T-cells that express TNFα and/or IL-17A (flow cytometry): abrogates OVX-induced increase in peripheral blood T-cells that express TNFα and/or IL-17A
IL-17A and TNFα produced by freshly isolated peripheral blood cells (ELISA) (listed as IdRANKL): abrogated the ability of circulating T-cells to secrete IL-17A, TNFα, or both
peripheral blood T-cells that express TNFα and/or IL-17A (flow cytometry) (listed as IdRANKL): prevented such increase
IL-17A and TNFα produced by freshly isolated peripheral blood cells (ELISA) (listed as low-dose RANKL): abrogates OVX-induced increase in TNFα and IL-17A expression
numbers of CD8+ FoxP3+ cells in the bone marrow (WD-fed WT mice, two i.p. injections 3 and 7 weeks after OVX): increased
